Data from patent US20240392020A1 (JIANGSU HENGRUI PHARMACEUTICALS, published 2024).
Where a chain is given by its changes, count along the chain named.

T1: hP40 (human, UniProt P29460 23-328)
T1 construct: bought
T1 sequence (looked up): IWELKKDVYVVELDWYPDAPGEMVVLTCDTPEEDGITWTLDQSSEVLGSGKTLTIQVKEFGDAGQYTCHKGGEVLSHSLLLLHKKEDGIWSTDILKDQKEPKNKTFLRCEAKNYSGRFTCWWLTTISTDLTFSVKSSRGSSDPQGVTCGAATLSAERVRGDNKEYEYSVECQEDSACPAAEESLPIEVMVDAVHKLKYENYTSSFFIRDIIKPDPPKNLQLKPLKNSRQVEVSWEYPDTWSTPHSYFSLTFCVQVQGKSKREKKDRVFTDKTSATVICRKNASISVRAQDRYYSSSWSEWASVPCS

T2: CEA on MKN45 cells (UniProt P06731 35-685)
T2 construct: whole, on cells
T2 sequence (looked up): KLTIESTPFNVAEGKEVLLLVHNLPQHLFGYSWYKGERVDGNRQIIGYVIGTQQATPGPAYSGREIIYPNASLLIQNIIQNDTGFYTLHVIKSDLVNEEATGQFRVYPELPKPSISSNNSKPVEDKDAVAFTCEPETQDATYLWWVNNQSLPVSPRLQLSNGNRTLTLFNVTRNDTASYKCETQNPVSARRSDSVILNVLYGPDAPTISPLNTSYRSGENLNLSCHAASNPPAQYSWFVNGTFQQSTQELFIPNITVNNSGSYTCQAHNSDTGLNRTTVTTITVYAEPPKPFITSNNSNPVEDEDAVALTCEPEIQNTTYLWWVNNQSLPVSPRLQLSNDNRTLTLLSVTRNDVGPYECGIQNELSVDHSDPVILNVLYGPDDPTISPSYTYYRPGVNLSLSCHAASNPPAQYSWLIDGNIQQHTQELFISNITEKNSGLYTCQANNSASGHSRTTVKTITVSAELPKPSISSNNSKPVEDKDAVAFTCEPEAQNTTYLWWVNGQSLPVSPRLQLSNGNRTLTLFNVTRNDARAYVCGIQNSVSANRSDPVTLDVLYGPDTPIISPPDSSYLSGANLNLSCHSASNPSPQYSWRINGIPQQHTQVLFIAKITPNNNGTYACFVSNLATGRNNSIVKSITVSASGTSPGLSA

B1: I2 (antibody)
heavy: not shown
light: DIQMTQSPSSLSASVGDRVTITCRASQSISNNLNWYQQKPGKAPKLLIYYTSRFHSGVPSRFSGSGSGTDFTFTISSLQPEDIATYYCQQEHTLPYTFGQGTKLEIKSGAPRFLTRPKSYTVSVGKDASLSSQIVGNPTPQVSWEKDQQPVAAGARFRLAQDGDLYRLKILDLALGDSGQYVSRARNAIGEAFACVGLQVDAEA
B2: I3 (antibody)
heavy: not shown
light: B1 light with K118L, S119A, Y120F, T121V, S129T, Q148K, A152T, A174Q, G176S, V196L
B3: U3 (antibody)
heavy: not shown
light: DIQMTQSPSSLSASVGDRVTITCRASQGISSWLAWYQQKPEKAPKSLIYAASSLQSGVPSRFSGSGSGTDFTLTISSLQPEDFATYYCQQYNIYPYTFGQGTKLEIKSEAPRFLTRPLAFVVSEGKDATLSSQIVGDPPPEVTWEKDQQPITAGARFRLAQDGDVYRLEILDLQLSDSGQYVSRARNAIGEAFACVGLQVDAEG
B4: U2 (antibody)
heavy: not shown
light: DIQMTQSPSSLSASVGDRVTITCRASQGISSWLAWYQQKPEKAPKSLIYAASSLQSGVPSRFSGSGSGTDFTLTISSLQPEDFATYYCQQYNIYPYTFGQGTKLEIKSGAPRFLTRPKSYTVSVGKDASLSSQIVGNPTPQVSWEKDQQPVAAGARFRLAQDGDLYRLKILDLALGDSGQYVSRARNAIGEAFACVGLQVDAEA
B5: U7 (antibody)
heavy: not shown
light: DIQMTQSPSSLSASVGDRVTITCRASQGISSWLAWYQQKPEKAPKSLIYAASSLQSGVPSRFSGSGSGTDFTLTISSLQPEDFATYYCQQYNIYPYTFGQGTKLEIKSGAPRFLTRPLAFVVSVGKDATLSSQIVGNPTPQVSWEKDQLPVTAGARFRLAQDGDLYRLKILDLTLSDSGQYVSRARNAIGEAFACVGLEVGAEA
B6: U4 (antibody)
heavy: not shown
light: B5 light with Q148K, L149Q, T174Q, V196L, E199Q, G201D
B7: U8 (antibody)
heavy: not shown
light: B5 light with A119S, F120Y, T129S, T174Q
B8: U5 (antibody)
heavy: not shown
light: B5 light
B9: U1 (antibody)
heavy: not shown
light: B4 light with K118L, S119A, Y120F, T121V, S129T
B10: U6 (antibody)
heavy: not shown
light: B5 light
B11: C0 (antibody, human IgG1, kappa)
heavy: not shown
light: DIVMTQSPDSLAVSLGERATINCRASESVSIIGTNLIHWYQQKPGQPPKLLIYHASNLETGVPDRFSGSGSGTDFTLTISSLQAEDVAVYYCLQSRKIPYTFGGGTKVEIKRTVAAPSVFIFPPSDEQLKSGTASVVCLLNNFYPREAKVQWKVDNALQSGNSQESVTEQDSKDSTYSLSSTLTLSKADYEKHKVYACEVTHQGLSSPVTKSFNRGEC
B12: C1 (antibody)
heavy: not shown
light: DIVMTQSPDSLAVSLGERATINCRASESVSIIGTNLIHWYQQKPGQPPKLLIYHASNLETGVPDRFSGSGSGTDFTLTISSLQAEDVAVYYCLQSRKIPYTFGGGTKVEIKGIPPKIEALPSDISIDEGKVLTVACAFTGEPTPEVTWSCGGRKIHSQEQGRFHIENTDDLTTLIIMDVQKQDGGLYTLSLGNEFGSDSATVNIHIRSI
B13: C2 (antibody)
heavy: not shown
light: B12 light
B14: HJ-3 (bispecific antibody, human IgG1, kappa, L234A L235A)
heavy 1: not shown
light 1: DIQMTQSPSSVSASVGDRVTITCRASQDIANYLSWYQQKPGKSPKLLIYGTSNLEVGVPSRFSGSRSGTDFTLTISSLQPEDFATYYCLQDKEFPRTFGGGTKVEIKGGGGSSGAPRFLTRPLAFVVSVGKDATLSSQIVGNPTPQVSWEKDKQPVTAGARFRLAQDGDLYRLKILDLQLSDSGQYVSRARNAIGEAFACLGLQVDAEA
heavy 2: EVQLVQSGAEVKKPGSSVKVSCKASGYTFSNYLIEWVRQAPGQGLEWIGVIDPGVGDTNYNENFKGRATLTADKSTSTAYIELSSLRSEDTAVYYCAREDNTGTAFDYWGQGTTVTVSSASTKGPSVFPLAPSSKSTSGGTAALGCLVKDYFPEPVTVSWNSGALTSGVHTFPAVLQSSGLYSLSSVVTVPSSSLGTQTYICNVNHKPSNTKVDKKVEPKSCDKTHTCPPCPAPEAAGGPSVFLFPPKPKDTLMISRTPEVTCVVVDVSHEDPEVKFNWYVDGVEVHNAKTKPREEQYNSTYRVVSVLTVLHQDWLNGKEYKCKVSNKALPAPIEKTISKAKGQPREPQVCTLPPSREEMTKNQVSLSCAVKGFYPSDIAVEWESNGQPENNYKTTPPVLDSDGSFFLVSKLTVDKSRWQQGNVFSCSVMHEALHNHYTQKSLSLSPGKDYKDDDDK
light 2: SIVMTQTPLSLSVTPGQPASISCKASQSVSSDVTWYLQKPGQSPQLLIYYVSEHYTGVPDRFSGSGYGTDFTLKISRVEAEDVGVYYCQQHHRFPLTFGQGTKLEIKRTVAAPSVFIFPPSDEQLKSGTASVVCLLNNFYPREAKVQWKVDNALQSGNSQESVTEQDSKDSTYSLSSTLTLSKADYEKHKVYACEVTHQGLSSPVTKSFNRGEC
B15: HJ-8 (bispecific antibody, human IgG1, kappa, L234A L235A)
heavy 1: not shown
light 1: B14 light 1 with G108R, G109T, G110V, G111A, L123K, F125S, T144F, A160V, I194H
heavy 2: EVQLVQSGAEVKKPGSSVKVSCKASGYTFSNYLIEWVRQAPGQGLEWIGVIDPGVGDTNYNENFKGRATLTADKSTSTAYIELSSLRSEDTAVYYCAREDNTGTAFDYWGQGTTVTVSSASTKGPSVFPLAPSSKSTSGGTAALGCLVKDYFPEPVTVSWNSGALTSGVHTFPAVLQSSGLYSLSSVVTVPSSSLGTQTYICNVNHKPSNTKVDKKVEPKSCDKTHTCPPCPAPEAAGGPSVFLFPPKPKDTLMISRTPEVTCVVVDVSHEDPEVKFNWYVDGVEVHNAKTKPREEQYNSTYRVVSVLTVLHQDWLNGKEYKCKVSNKALPAPIEKTISKAKGQPREPQVCTLPPSREEMTKNQVSLSCAVKGFYPSDIAVEWESNGQPENNYKTTPPVLDSDGSFFLVSKLTVDKSRWQQGNVFSCSVMHEALHNHYTQKSLSLSPGK
light 2: B14 light 2
B16: HJ-10 (bispecific antibody, human IgG1, kappa, L234A L235A)
heavy 1: not shown
light 1: DIQMTQSPSSVSASVGDRVTITCRASQDIANYLSWYQQKPGKSPKLLIYGTSNLEVGVPSRFSGSRSGTDFTLTISSLQPEDFATYYCLQDKEFPRTFGGGTKVEIKRTVASSGAPRFLTRPKASVVSVGKDATLSCQIVGNPFPQVSWEKDKQPVTAGVRFRLAQDGDLYRLKILDLQLSDSGQYVCRARNAHGEAFACLGLQVDAEA
heavy 2: B15 heavy 2
light 2: B14 light 2
B17: HJ-7 (bispecific antibody, human IgG1, kappa, L234A L235A)
heavy 1: not shown
light 1: B16 light 1 with R108G, T109G, V110G, A111G
heavy 2: B15 heavy 2
light 2: B14 light 2
B18: HJ-9 (bispecific antibody, human IgG1, kappa, L234A L235A)
heavy 1: not shown
light 1: B16 light 1 with R121C, C137S, C188S
heavy 2: B15 heavy 2
light 2: B14 light 2
B19: HJ-6 (bispecific antibody, human IgG1, kappa, L234A L235A)
heavy 1: not shown
light 1: B14 light 1 with R121C, L123K, F125S, T144F, A160V, I194H
heavy 2: B15 heavy 2
light 2: B14 light 2
B20: HJ-11 (bispecific antibody, human IgG1, kappa, L234A L235A)
heavy 1: not shown
light 1: B16 light 1 with A115C
heavy 2: B15 heavy 2
light 2: B14 light 2
B21: HJ-5 (bispecific antibody, human IgG1, kappa, L234A L235A)
heavy 1: not shown
light 1: B14 light 1 with L123K, F125S, T144F, A160V, I194H
heavy 2: B15 heavy 2
light 2: B14 light 2
B22: I6 (antibody)
heavy: not shown
light: DIQMTQSPSSLSASVGDRVTITCRASQSISNNLNWYQQKPGKAPKLLIYYTSRFHSGVPSRFSGSGSGTDFTFTISSLQPEDIATYYCQQEHTLPYTFGQGTKLEIKSGAPRFLTRPLAFVVSVGKDATLSSQIVGNPTPQVSWEKDQLPVTAGARFRLAQDGDLYRLKILDLTLSDSGQYVSRARNAIGEAFACVGLEVGAEA
B23: I5 (antibody)
heavy: not shown
light: B22 light
B24: I7 (antibody)
heavy: not shown
light: B22 light with A119S, F120Y, T129S, T174Q
B25: I4 (antibody)
heavy: not shown
light: B22 light

How the values were obtained:
[1] = target: T3, hNGF (human, UniProt P01138 122-241, limits assumed); assay: ELISA
T3 construct: bought
Experimental: (§1) For an antibody targeting a soluble protein, the binding activity of the antibody against the soluble protein was detected by ELISA. […] After the blocking was completed, the blocking solution was discarded; and the plate was washed 3 times with a PBST buffer (pH 7.4, PBS containing 0.1% tween-20). 100 μL of the antibody solution diluted in a gradient was added to each well, and the mixture was incubated at 37° C. for 1 h. After the incubation was completed, the plate was washed 3 times with PBST. […] The plate was washed 3 times with PBST. […] The reaction was stopped by adding 50 μL of 1 M H₂SO₄ to each well. The absorbance values at 450 nm were read on a microplate reader, the binding curves of the antibodies to an antigen were fitted with software, and the EC₅₀ values were calculated.

[2] = target: T1, hP40; assay: ELISA
Experimental: as §1

[3] = target: T2, CEA on MKN45 cells; assay: FACS, MKN45 cells
[4] = target: T4, hIL-5 (human, UniProt P05113 20-134); assay: ELISA
T4 construct: bought
Experimental: (§2) For an antibody targeting a soluble protein, the binding activity of the antibody against the soluble protein was detected by ELISA. […] After the blocking was completed, the blocking solution was discarded; and the plate was washed 3 times with a PBST buffer (pH 7.4, PBS containing 0.1% tween-20). 100 μL of the antibody solution diluted in a gradient was added to each well, and the mixture was incubated at 37° C. for 1 h. After the incubation was completed, the plate was washed 3 times with PBST.

[5] = target: T5, hTSLP (human, UniProt Q969D9 29-159); assay: ELISA
T5 construct: bought
Experimental: as §2

T3 sequence (P01138 122-241 limits assumed): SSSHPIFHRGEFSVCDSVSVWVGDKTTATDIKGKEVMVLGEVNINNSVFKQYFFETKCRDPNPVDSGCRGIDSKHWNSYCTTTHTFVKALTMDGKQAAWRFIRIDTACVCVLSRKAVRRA

Row | Binder | EC50 [2] [nM] | EC50 [4] [nM] | EC50 [5] [nM] | also measured
1 | B1 |  |  |  | EC50 [1]: 3.19 nM
2 | B2 |  |  |  | EC50 [1]: 2.99 nM
3 | B3 | 0.02 |  |  | 
4 | B4 | 0.07 |  |  | 
5 | B5 | 0.07 |  |  | 
6 | B6 | 0.06 |  |  | 
7 | B7 | 0.16 |  |  | 
8 | B8 | 0.11 |  |  | 
9 | B9 | 0.03 |  |  | 
10 | B10 | 0.11 |  |  | 
11 | B11 |  |  |  | EC50 [3]: 5.81 nM
12 | B12 |  |  |  | EC50 [3]: 17.7 nM
13 | B13 |  |  |  | EC50 [3]: 16.5 nM
14 | B14 |  | 17.4 | 3.23 | 
15 | B15 |  | 18.7 | 3.33 | 
16 | B16 |  | 20.8 | 3.17 | 
17 | B17 |  | 17.7 | 2.18 | 
18 | B18 |  | 10.9 | 3.18 | 
19 | B19 |  | 37 | 2.88 | 
20 | B20 |  | 9.46 | 3 | 
21 | B21 |  | 16 | 2.64 | 
22 | B22 |  |  |  | EC50 [1]: 4.12 nM
23 | B23 |  |  |  | EC50 [1]: 3.59 nM
24 | B24 |  |  |  | EC50 [1]: 3.15 nM
25 | B25 |  |  |  | EC50 [1]: 4.13 nM
